Experimental data taken from the DeepSol protein solubility set.

experiment: soluble on expression in E. coli; label from the status in PepcDB or PDB records

Sequence	soluble on expression in E. coli
MAHHHHHHMRGMWATLRLFRCDRNFTALNRGNGVYNIQSVASRDCALCHSQRAVKHRSLSPDDPFGEKSASDDPVDGFYGAWSNINVDAFANAAASEEVRMAHFGPEWSRFTTIGRLSVKKMNESGSSASSGSEDCGMASQHPLGAEELHMRELRERRKVLERNYSSYDEYVAKELGLSEVDDCDNACGLQSEDPEIVADGEEAEDNDDADEDADNVPLPQFMRRSGCEQENDTGVNIYSSDQQQQQQMGGVPANTVNEGHVPQRRGTLHPPEPLAQVVFCQLGEPHGDSELPREDPLHWDTEEVILWIRRMEAAQCVLSSGSLACDSLVMEDPSMQEAFRMARIDGDYLLKNTVPATMFQVMRRWHLRRHEIVLAVLKEQQRRGIDSHEINTSIFDDPIMRGILDSGRAKLDEVVLMVTPMLVQETICQGYLYCR	not soluble
MAHHHHHHMRKKKTKDVPTVFIECALEGEGEKLCVRWLFGMGVGGKPYDADEYDATIVWVPSDYAFHGDKFTSPLRPIPTKNPVAVVRIPVYLCRKKALRSCGGNPMLLSVYGSYGECCDVVFENERLSLLDRGFVWGFAAVCGGSELGAAWHKAGCGLQRATSVNDFVSVSFYVQETGWCAAGQIVTHGSSAGVFVATAAMCVAPSLPLAVIALVPCVDCLTTLMDDSLPLTVSNWEEFGNPRDDADAYRLLRAMLPMDNIPSVGVALPHMLLLTAWHDTRVGFWESLAFTARLRAREMEEGAATR	soluble
MAHHHHHHMRPGRLDKTIVVPLPDIKGRYEILKMYSSKIVLSKDVDLHVLSRRTVGMTGADLNNILNIAAIKCSVEGKKAVDMNSIEQAFDRVVVGLQRKSPLNEEEKNITAYHEGGHTLVNFYTKGSDPVHKATIMPRGMSLGVTWKIPISDKYSQKIRDVQSEIDILMGGLVSEEIIFGKNNVTTGCSSDLQRATHIAQSLVMNYGVGINEENISMFLQDKKNISEEMKIKIDKSIQRILLDSYNRAKKVLNQHIDELHRVASALVEYETLTSDEIKLAMQGKHDQIRKNRELKQKEFNLKDSRIS	not soluble
MAHHHHHHMRSVWSGCRSIVSPPLWPLRLRHSVQVGAHGGHAFGMCSRSESVVSTFAMRVSLRWHGTTTPPSASPEGSSGAVHSVLSAAGHNDEEEASSSRSFRGTVRTVRLHNMPRTWLHEEVMQFLHQVAEHAGIDPPPEATQDNGTEGNANSKEYEEEDMTSAVPNVTSPFVARMHIPFGRRTGIVCGPPIIQLTSDALAGYLLNDLNFEPDDYRSRIYFTEVVNDKYHEATKMVNKDEAALLKMEQQEALESLELDRYLMAPDLLYDIAKMRQRRLVTRRSKLLLHTFADDDRPDEGEDGKDQSEVKDDDPTNENKRVRLRRHKKSKKTLRCVGEYKELGRGSVHSVPLALPYVQGRRGV	not soluble
MAHHHHHHMRVPSLPIIIDEFPALAGSRSHSGSGSGSELFFLTHFHTDHMKGLSSAWTAGLIITGTITRQLLLNKFEGLRGRVLGLPFWCRTPVLSAAGAAHSETDSTTATAVPVVHVTLLPAFHIPGSAMIYIETPSGVTYLHTGDFKYTEAAAQMSSLRTFFQSHRVDHLYLDDTWLHLGHTELKSWPALTESPLVGHRGVGIANSGIRVLSKLLDADQVEEAIEAIGRRMDYQRQLHAQWVQQQSQCDSNGTAEALTPSSSSSSASAELSDARLPFIVRVYLHNQFGKELLIQQLAARLRTRALIDDARYARLLTVVEALEEERDDLEAFEGADPARLDGAAPPLSAEELAWRASGGEAARYPYDLNCFVSCSQAQQQKQQQLWARWRYDRGAMSPQQPQPPADHSVKRSCGPPLIEVVRNRASIEPATLQAASAARGGTPYYGVVISGWARLQSQTHGPAASGQVWQVPTTLHSTPQEIVDFVALLRPLSVTPLHYRPSRGEVVMQRLGPYLRVPFVNNHDTGCGATTAATAGRDAVALRGGVVRWMPYLPAYLLLSQMGGSDSRSGLGTSTLLGMLGARDAAAVCDNGLDALEEKPPRGFRIRPAGLPLPSSKAAVAASRSGGEAPGGCDSHTAAITASYFFAPSPTTTTSLPAQGMADVSGKATNPTDTSVSSRVRADGLRISTLLPSWRLSHLTQSYLSTQQSGGKRERVDVEMDGQSMVAHRAERHAATATKIESGERAAKAANDHDKDCPAVLLSSSATTGLLSLSDIADNVLA	not soluble
MAHHHHHHMSALAKKMMEKYGWKEGEGLGKERSGIKSYVKVTRRDPHTATGLGHAADPAQGGSLASTHAVELDAIYGQLHKETRKRQRQSSKARVDQGDTSEDEVDNGGELSDVSSTNSGASSSSSADSKSEGKAAVAARAAVKRQRRAPSSSPSNSGNDGDDRTDSKRSKGEHIGDVTRMSDKELFQRCGGVRLGRAGRHRLFDGKLKRIQDSS	soluble
MAHHHHHHMSDLSTAHASQGYRFDPSRMNGCLHDTIIFKRLPSRLRHSTGSRTRSLRVNRPAVE	soluble
MAHHHHHHMSFVVIRLLEVLPTQVRTQLTANAEYVVSVSSAQRLSTFCSQGPYAATRLQLSDFDGAARLWEPQWNVVEALPATKEVHDVSRVCAVYRGNSGVTAFAFIDEHGTVLATTRWVDCALSTVSGRERAVLQAAQLRKLFTQCRPTVMAIGASSIACLPLLRTLETFLREQVHQSAVVDVPVVWASVEVPRYYSVTTYARLELPQTENIVVTSVALARYVQDPLQVLCSLFEGEQTALQLCRTIRISASHDRQLYQASGVGDEPVGGGGGPVGRRYCVPPQHCRDAAVCSRPRPRQSACVGQCHPSLRRSAKSTASGAASGTLRGRHRAERRAGAARSLAGAMRRGAPVAPSRCNADPVAVVRDRLFGGKGDCLLIDAAGRSVASRAAWNGAGGAPGCTLPRRRAFYGCQGQGECGGPGRRGSS	not soluble
MAHHHHHHMSISIRSTAQRQLARRQPPTTSSSSVSLPRAAFAPASRSASAVEATSESASSSQVPEQQEATPTRILDNARSSSCAAAPPPFSASSDQRSDQINKCIHDTSTLTSKPPPSASSASSRGAAAPSLPPSAPSSTTGAPRSGHDAEPEGLHDAASSTAAPSGAGSSAVANSQRTAASHSLLYSVSRFTEPVKRIILIRNGRSEANEDVRAYVQTPDWRIPLVEEGKREAIAAGRALSELIGDGPVYFYYSPYIRSRQSLRYVLQGFDEARLSGLSHSREWWEDEETAAVASAAAAAESSTLKCATASADEAGSPPLLAPAPSAISTNATSSDAQCCFHRDPSLVLNRGTSNNIIGVREDVRLRDGDIGRYTSADELMHHLVERERYGRFFYRFPFGESGADVCDRVTSFLDAFQRERVEFPMDTSVVIITHGLTMRMLIKRWFYLTVETFHKMKSPPPGSLCTLTRLHHRSCFRLDECCVESMNLPLSLNEFNGYKYRNKQLLGSMSSGAPYM	not soluble
MAHHHHHHMSLAPNTGSVELKAYSAHASLLLARGERIDKRAFDECRLPAIVREERVGGATVAGAGDGSPQSSASSNMTSTYTVLDGKSLAAVMYTDAYGTCIQCTVQGLLGPPRPEQPAAGRLNVHVEAPFVEHLSGGATSTNYRSFQYMIASGNADLPLRQLEGYIGTVLDGCFDLSQLSIYAGEACWVLKVSVLLLSVDGGLRAGSLHAALAALHKLHLPRIRLPNGDVIEGRQVQLSCMPVACTFGFLAGAQVRLVADTTAIEEHVADGLITVVVDEAERILSVHHTGRCPLLAQALTAAAQQWAAASGSMRKALYG	not soluble
MAHHHHHHMSLKAKLDVYPVENYTQTSVDVSNGHAGVAGNKVNLGAGSAAPFRPPSAIEKLLSLKKRCEEEPCVHSVEGVLLVHLHRHPHILLMKQINSRTRDADGMRTVPPSNTNAEVTYRLPGGRCRRGEAEESCLLRKLGRHLLNEAKTPAGAAEVASTGNSDTVVDVGMTHTASKAGSCFRVGEVLATWYRPHFTPHMYPYVPAHIAAGSVREVRTIYLVHLEPTVYFTMVQESVELVAAPLFDLYENSSKYGPIVASLPVLLSRVLINYCSTEY	not soluble
MAHHHHHHMSMHSVEGALCSCSMCKLTCHTASVYANQRRASKHVMLARPSPFYAETGGLPPEVPQLAPPPERLVVCPVFEEYGFCPFGRICFLPHSGEKTPLVERKGTSREELERLREKARLQEEEELWSCDVCGFDGIDENTQGRVGEMYYYRNCPRCSLMCYFPHIAYLVDAIFDASGDDYQIFKDEIDRCRRELPDILKVPLTYEAHRIASTAFAWSLVSPKHVKDALDAAYRALPEMSCIVSVGSGVGYVEHIFNRVANGVPAAPRDPDPALGISSFEGVHACFYPKKKLPIYAFDEVALNCPYSVCVSLGGPVALLSLQCPTSVLLLSWPPFGSPKEEQSSMAFEALEYFTQAGGKVVIYIGDVASTGDWRFHELLYTHYKLVKDYTVRREVRRWSPQDMGLVYAGNDTIGVYKLRSERLPSPQWQWDGRSS	not soluble
MAHHHHHHMSSGRRDIIFFGSIAVSILGHEVHDEAVAPQLERQNARIKLHTTARAPYAKTEEVFGLDATSPLYEIHSADFKASPTSSLTPQRGAPHPRHHRQKAAFLPVMLKLAQDAAVEEVPSIEDQDGALLQLDSPTNNVDPAPSYASASVRIEVDMSRSGGDATPVGTKEVFLPSLNYLAIRDMCTVVRIPVWSNTIQRSETGDVDVAELDRRSPQPQRAGDDNSSSSSGVLGGVRDRNSRGDAVSGVALSVYAMVRVISLAEKVRLALEADDAVRCLLGLPDPVPGVSLALTQRGDAPYGAMPLTELYKHHRQFFGYYSNTIIKHSNVVTQRLAEAPRQREADASFPHRWNTLTVVDLRPALLGEDAFAPLLVTLAYCANLRALYADGNHLGDLTCARLSALFRRHRYLARVSLSKNTIHEAGGEHLLRLVRNNLRITSMPCQGNYFSDALRSRIEEVARRNASVIAQDPLNIFSASYDYLTDLSSLPNSLQQQGLRTWAMLSAAPVGDVDVMVRNFTTSTQRTLGDSPVVAMQRAKTALRARESFSLIPPAALAPFLNEIMRTVSVGVSRVLPDPLVRSLFSDMETVVAREQEQVEAQRRDELAGGSRDASLLPPEVCDAVGGAYTPPVDSETMYARSFVRIVVAALRGVALGTPWAEIAKVLEGIGRVHRDLGVMPEDYWLAVHIFMTSLRISCGAECYDADSASSFLGLLALAVRTAVGTDTVLQ	not soluble
MAHHHHHHMSSSEKKHAAWVDVVAGGFGGALAKSLLSPFQRIVVLQQLGQHKSYSIAQLVHHIYAQEGLKSFWRGNLTSMVIRVPYSGIQFLLYTQLKFLFQDWLDRRHAAAALPTHQADGSSDNS	soluble
MAHHHHHHMSSSSSGQYSGSGGNRGSGFVHLNTPASIQYTAGKTLSLSALRQSKSRVECAVLPESMSVWRDAFQRYSKEEGYSSFAADIEDERTGNGPILPPLVPQRAGPVRRRAGRALVRTDAFFCASSSPAPLGTSASTAHTGADRPPLTDGAAAISSTATAASASSSSRLSDKGTTATSADSVADGSTGPTAKQQQEGIPIVSHHKLLGRQQFVYPDYDGVLSAGVVPQIVVTAEEEAEEAAAKAFYISPLTMTEEELAAFEELQGLWKSRARSHSFLGAQHRKAAKGAVDPSSSADVLEAGGAGLPKVRRCEGVTGGASLSARRGNEIDVPAYAEAETAVEEESKLDKELSEALRMADDLLRFA	not soluble
MAHHHHHHMSSVKITLFQGKFRLDRLLGKGGFGEVYAGVQVSTGEPVAVKLERNKGRCFLFHEARVMQDIQNSMPGRTTPGIPELKYFGQEGDFRILIMSLLGPSLEDLHAKLGRFSLKTTVMLADEMLSRLEFIHSVGYIHRDLKPDNYLLGVGRNVRHLYLIDLGLSVRYRSTNGEHREMATGKSFVGTSRYASLRTHKGFSQSRRDDMEQLSYILIYLYRGHLPWSGLRMKDREAKEKAIGEIKQKLTTAQICSKCPSQFEDLLNYSRKLEFAESPQYEMCRILIASVLDTIGPNVKHDFQYDWVNVRKRDNSPPPPPPCIVTHERRATENKINLKKGNENGEKDAATIGSKIFCFFPGLSSSASQEMVLVNEK	not soluble
